Data reported in patent US7220569.

Columns and labels:
[1] = tested on: recombinant Factor X (rFX) from highly expressing CHO-rFX clones
[2] = tested on: rFactor X from furin deficient CHO-FD11 cells (CHO-FD11-rFX)
[3] = tested on: Factor X analogue with the FXIa cleavage site Asp-Phe-Thr-Arg/Val (rFX^DFTR/V)
Factor X analogue with the FXIa cleavage site Asp-Phe-Thr-Arg/Val (rFX^DFTR/V), sequence (chain, as listed by the source, chain 1 of 2): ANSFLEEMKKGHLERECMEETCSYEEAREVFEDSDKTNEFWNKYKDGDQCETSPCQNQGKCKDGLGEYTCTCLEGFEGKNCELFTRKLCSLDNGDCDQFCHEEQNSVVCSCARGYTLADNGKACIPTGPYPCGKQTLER
Factor X analogue with the FXIa cleavage site Asp-Phe-Thr-Arg/Val (rFX^DFTR/V), sequence (chain, as listed by the source, chain 2 of 2): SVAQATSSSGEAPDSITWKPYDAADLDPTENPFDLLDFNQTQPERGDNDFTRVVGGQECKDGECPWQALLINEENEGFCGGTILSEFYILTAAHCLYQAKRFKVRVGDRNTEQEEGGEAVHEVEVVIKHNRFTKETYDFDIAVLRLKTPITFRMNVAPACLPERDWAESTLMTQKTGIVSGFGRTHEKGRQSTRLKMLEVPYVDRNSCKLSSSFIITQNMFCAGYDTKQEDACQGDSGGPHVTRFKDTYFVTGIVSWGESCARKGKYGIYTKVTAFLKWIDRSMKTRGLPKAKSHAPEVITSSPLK

recombinant Factor X (rFX) from highly expressing CHO-rFX clones, sequence (chain, as listed by the source): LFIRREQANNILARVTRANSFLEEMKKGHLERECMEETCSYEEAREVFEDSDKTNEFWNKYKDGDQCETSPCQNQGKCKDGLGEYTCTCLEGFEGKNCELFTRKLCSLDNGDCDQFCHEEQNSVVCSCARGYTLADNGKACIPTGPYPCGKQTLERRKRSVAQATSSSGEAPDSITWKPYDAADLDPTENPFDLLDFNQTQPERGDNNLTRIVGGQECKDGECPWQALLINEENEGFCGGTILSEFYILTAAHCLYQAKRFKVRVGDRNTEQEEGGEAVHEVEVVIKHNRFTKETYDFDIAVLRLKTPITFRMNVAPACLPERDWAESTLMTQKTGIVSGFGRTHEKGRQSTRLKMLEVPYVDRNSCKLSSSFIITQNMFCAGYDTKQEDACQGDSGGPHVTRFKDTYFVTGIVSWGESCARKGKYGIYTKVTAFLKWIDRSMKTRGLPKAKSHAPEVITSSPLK
rFactor X from furin deficient CHO-FD11 cells (CHO-FD11-rFX), sequence (chain, as listed by the source): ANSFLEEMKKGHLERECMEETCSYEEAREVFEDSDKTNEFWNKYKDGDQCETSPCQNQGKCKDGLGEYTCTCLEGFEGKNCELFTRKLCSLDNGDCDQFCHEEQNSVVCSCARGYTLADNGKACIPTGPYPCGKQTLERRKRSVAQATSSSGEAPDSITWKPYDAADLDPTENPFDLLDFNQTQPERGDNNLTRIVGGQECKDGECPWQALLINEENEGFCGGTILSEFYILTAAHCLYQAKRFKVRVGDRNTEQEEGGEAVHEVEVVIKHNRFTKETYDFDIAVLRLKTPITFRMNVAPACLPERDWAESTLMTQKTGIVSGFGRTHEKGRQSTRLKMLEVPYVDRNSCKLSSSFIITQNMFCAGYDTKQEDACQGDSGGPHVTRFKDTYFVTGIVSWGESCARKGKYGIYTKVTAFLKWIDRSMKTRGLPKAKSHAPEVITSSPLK

In the case of endogenous furin of CHO cells, the “processing of rFactor X precursor in furin containing versus furin deficient CHO clones (Western blot)” value [1] is reported as “rFactor X precursor is not processed in the furin deficient cells and only single chain Factor X precursor is present (FIG. 6); in contrast, rFactor X is completely processed by "normal" cells at modest expression”.
“rfurin deltaTM6xHis (CHO-rfurin cell culture supernatant)” was tested, and the “N-termini of processing products after 12 hours at 37 C with CHO-rfurin supernatant (Edman analysis)” value [2] was “After incubation of rFX from CHO cells (c) and CHO-FD11 cells (e) in the presence of furin, only light and heavy chains having correct N-termini are found”, the “N-termini of processing products after 12 hours at 37 C with CHO-rfurin supernatant (Edman analysis)” value [1] was “After incubation of rFX from CHO cells (c) and CHO-FD11 cells (e) in the presence of furin, only light and heavy chains having correct N-termini are found” and the activity (mU), FX Coatest after RVV activation, incubation 0 days [1] was 853 mU. For the same substance, the activity (mU), FX Coatest after RVV activation, incubation 1 day [1] was 1020 mU, the activity (mU), FX Coatest after RVV activation, incubation 2 days [1] was 1100 mU and the activity (mU), FX Coatest after RVV activation, incubation 3 days [1] was 1140 mU. The activity (mU), FX Coatest after RVV activation, incubation 4 days [1] was 1200 mU, the functional portion of rFX (%), incubation 0 days [1] was 61% and the functional portion of rFX (%), incubation 1 day [1] was 73%. The functional portion of rFX (%), incubation 2 days [1] was 79%, the functional portion of rFX (%), incubation 3 days [1] was 81% and the functional portion of rFX (%), incubation 4 days [1] was 86%. The “processing of pro-Factor X on tentacle gel immobilized rfurin derivative (Western blot of the effluent)” value [1] was “Processing of pro-Factor X to double chain Factor X was detected in the effluent of the column” and the “processing of single chain and propeptide containing rFX (Western blot)” value [1] was “almost complete processing already after 2 hours of incubation at 37 °C”.
For purified plasma FXIa, the “activation of rFX^DFTR/V to the 35 kD and 31 kD forms (Western blot)” value [3] was “protein bands of 35 kD and 31 kD rapidly appear after the addition of purified FXIa, but prior to the actual incubation of the cell sulture supernatant (FIG. 11, lane 3)”.
